From publication PMC6176016

Assays:
Test in all cases: FRET by FACS (LSRII)
WT TACI-YFP = details: HEK-293T cells, double positive YFP and mCherry gate, 6 independent experiments, read off a plot
[1] = biological target: TACI-S (short TACI isoform) labeled with mCherry or YFP, O14836-2; details: co-transfected HEK-293T cells; percent of live cells in the gate, averaged for 6 experiments
[2] = biological target: TACI-L (long TACI isoform) labeled with mCherry or YFP (UniProt O14836); details: co-transfected HEK-293T cells; percent of live cells in the gate, averaged for 6 experiments
[3] = biological target: CD40-eYFP (pReceiver-huCD40-eYFP) (UniProt P25942); details: co-transfected HEK-293T cells; percent of live cells in the gate, averaged for 6 experiments
Sequence of CD40-eYFP (pReceiver-huCD40-eYFP) (P25942 21-277): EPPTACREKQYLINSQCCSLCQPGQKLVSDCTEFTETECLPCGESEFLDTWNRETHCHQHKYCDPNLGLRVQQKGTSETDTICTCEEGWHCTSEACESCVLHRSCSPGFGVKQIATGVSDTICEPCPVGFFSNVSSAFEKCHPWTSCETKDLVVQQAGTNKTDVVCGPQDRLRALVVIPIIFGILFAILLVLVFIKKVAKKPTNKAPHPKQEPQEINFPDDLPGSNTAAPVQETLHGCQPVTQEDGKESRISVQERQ

Sequence of TACI-L (long TACI isoform) labeled with mCherry or YFP (O14836 whole entry, canonical isoform): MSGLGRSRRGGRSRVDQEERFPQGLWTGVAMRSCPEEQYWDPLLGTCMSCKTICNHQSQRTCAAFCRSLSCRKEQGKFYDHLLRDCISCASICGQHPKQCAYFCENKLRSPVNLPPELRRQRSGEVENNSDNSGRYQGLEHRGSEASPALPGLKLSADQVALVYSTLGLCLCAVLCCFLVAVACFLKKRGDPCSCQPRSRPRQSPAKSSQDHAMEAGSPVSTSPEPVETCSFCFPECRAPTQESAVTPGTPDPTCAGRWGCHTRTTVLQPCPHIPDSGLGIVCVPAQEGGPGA
Sequence of TACI-S (short TACI isoform) labeled with mCherry or YFP, O14836-2 (O14836 other isoform, or with tags, fused parts or gaps): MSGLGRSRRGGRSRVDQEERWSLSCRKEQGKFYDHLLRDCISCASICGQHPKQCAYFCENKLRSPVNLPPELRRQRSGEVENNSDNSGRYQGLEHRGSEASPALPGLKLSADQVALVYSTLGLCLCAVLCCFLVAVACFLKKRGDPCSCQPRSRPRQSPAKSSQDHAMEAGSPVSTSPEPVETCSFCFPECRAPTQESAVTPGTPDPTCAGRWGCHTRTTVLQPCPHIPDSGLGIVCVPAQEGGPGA

Row | response (% FRET positive cells) (WT TACI-YFP; parent: est. 90) | response (% FRET positive cells) (WT TACI-YFP; parent: est. 72) | response (% FRET positive cells) [1] | response (% FRET positive cells) [2] | response (% FRET positive cells) [3] | Substance
1 | 72 |  |  |  |  | TACI-L A181E
2 | 81 |  |  |  |  | TACI-L C104R
3 |  |  | 19.6 | 16.8 | 0.38 | WT TACI (isoform of the mutant not stated in the panel) A181E

The next lines start with the substance.

Row | Substance | response (% FRET positive cells) (WT TACI-YFP; parent: est. 90) | response (% FRET positive cells) (WT TACI-YFP; parent: est. 72) | response (% FRET positive cells) [1] | response (% FRET positive cells) [2] | response (% FRET positive cells) [3]
4 | TACI-S A181E |  | 88 |  |  | 
5 | TACI-S C104R |  | 74 |  |  | 
6 | WT TACI (isoform of the mutant not stated in the panel) C104R |  |  | 18.7 | 14.8 | 0.02
